Assay results from publication PMC10433963 (2023).

Molecular target: ^H7-SUMOClpC1^FLAG (recombinant ClpC1) (M. smegmatis, UniProt A0R574 1-848)
Assay: MST; 1 mM ATPγS; Kapp from Hill fit

Chain of ^H7-SUMOClpC1^FLAG (recombinant ClpC1) (A0R574 whole entry): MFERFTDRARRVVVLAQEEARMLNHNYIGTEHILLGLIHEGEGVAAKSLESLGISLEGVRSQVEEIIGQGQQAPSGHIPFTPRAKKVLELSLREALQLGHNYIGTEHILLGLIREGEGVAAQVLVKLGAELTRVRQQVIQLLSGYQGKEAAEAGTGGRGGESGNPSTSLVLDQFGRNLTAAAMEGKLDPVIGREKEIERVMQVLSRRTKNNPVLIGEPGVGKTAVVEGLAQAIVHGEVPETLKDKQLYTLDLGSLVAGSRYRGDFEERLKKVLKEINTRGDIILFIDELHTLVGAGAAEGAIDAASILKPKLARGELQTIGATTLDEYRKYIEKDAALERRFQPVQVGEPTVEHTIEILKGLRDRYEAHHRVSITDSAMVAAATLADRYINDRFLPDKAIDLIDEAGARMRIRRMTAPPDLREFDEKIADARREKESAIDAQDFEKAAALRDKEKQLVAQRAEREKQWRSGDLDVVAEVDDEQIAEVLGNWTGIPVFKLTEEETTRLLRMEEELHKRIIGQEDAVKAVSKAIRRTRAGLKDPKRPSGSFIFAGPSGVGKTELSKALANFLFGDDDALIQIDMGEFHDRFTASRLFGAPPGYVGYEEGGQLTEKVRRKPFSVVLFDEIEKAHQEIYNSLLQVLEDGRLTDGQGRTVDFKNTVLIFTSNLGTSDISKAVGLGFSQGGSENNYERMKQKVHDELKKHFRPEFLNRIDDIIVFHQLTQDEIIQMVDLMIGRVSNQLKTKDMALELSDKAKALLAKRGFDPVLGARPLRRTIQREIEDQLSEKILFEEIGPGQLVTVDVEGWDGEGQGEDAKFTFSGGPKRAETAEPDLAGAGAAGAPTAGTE

B1: Magnesium chelatase (recombinant) (natural protein)
chain: MVSQPKDLPRTVGELRASGHRERGVKAEIRENLLAALAERRDVWPGILGFEDTVIPQLERALIAGHDVVLLGERGQGKTRLLRALTGLLDEWTPVIAGSELGEHPYSPITPESIRRAADSGDDLPVEWRHRSERYTEKLATPDTSVADLVGDIDPIKVAEGRSLGDPETIAYGLIPRAHRGIVAVNELPDLAERIQVAMLNVMEERDIQVRGYTLRLPLDVLVVASANPEDYTNRGRIITPLKDRFGAEIRTHYPLELEAEVGVIRQEAELAAEVPEYLLAVLARFARNLRESNSIDQRSGVSARFAIAAAETVAASARHRAAILGEDDPVARVVDLGTVIDVLRGKLEFETGEEGREQAVLEHLLRRATADTAQRLLGGIDVGPLVAAIEEGSPVTTGERVSAKDVVAALPDLPAIDAIAHRLNAVSVGQRAAAIELALEALYLAKRIDKVSGEGETVYG
Kd: 6.7 µM

B2: GntR (recombinant) (natural protein)
chain: MSPTPDPQSAVPAREIAYRIVYDAIASGRYLPGQWIREDEVTAEAGVSRTPLREALQRLQSEGLVQLVRHRGALVVGWTSADLDDLFDIRVALETYGARRAAQRRGGAQLESLQKLCASMDEILPAAQEPELQQLGHLCIDFHRGIHEAADNRKLLSVMPMVLAPPFVSEAFHHHTRLELEQAFAHHRELVEAIAIGDEDWAEGVMRAHLRHGRRSLRRMERHLPLMTSHDAEPAVTDTGQPETTSSDPVHE
Kd: 3.3 µM

B3: XRE (recombinant) (natural protein)
chain: MAQDENLAAVVSNAAQDIGSFIRAQREAAQVSVRQLAEKAGVSNPYLSQIERGLRKPSADVLNQIAKALRVSAEVLYVRAGILEPSEPSEVRDAIVNDVSITERQKQVLLDIYTSFRQQNEAAGEPEGAAVIPSPDEEPATD
Kd: 4.6 µM

B4: DnaJ1 (recombinant) (natural protein)
chain: MAQREWVEKDFYKELGVSSDASADEIKKAYRKLAAELHPDRNSDPGAAERFKAVSEANSVLSDPAKRKEYDETRRLFAGGFGRRFNQGGGGFGGGFGSDGVEFNLGDLFDAAGQTGGANIGDLFGGLFGRGPQQRPSRPRRGNDLETETELSFLEATKGVAMPLRLTSPAPCTNCHGSGARPGTSPKVCPSCNGSGVISRNQGAFGFSEPCTECRGSGSIIEHPCQECRGTGVTTRTRTINVRIPPGVEDGQRIRLAGQGEAGLRGAPSGDLYVTVHVRPDKVFGRDGDDLTVTVPVSFHELALGTTLSVPTLDGKVGVRVPKGTSDGRILRVRGRGVPKRSGGHGDLLVTVKVAVPPNLEGEAAEALEAYAKAERASGFDPRAGWAGNV
Kd: 6.4 µM
